{"source": "the DeepSol protein solubility set", "data": [{"test": "soluble on expression in E. coli; label from the status in PepcDB or PDB records", "values": [{"sequence": "MSWINRIFSKSPSSSTRKANVPEGVWTKCTACEQVLYSEELKRNLYVCPKCGHHMRIDARERLLNLLDEDSSQEIAADLEPKDILKFKDLKKYKDRINAAQKETGEKDALITMTGTLYNMPIVVAASNFAFMGGSMGSVVGAKFVKAAEKAMEMNCPFVCFSASGGARMQEALFSLMQMAKTSAVLAQMREKGVPFISVLTDPTLGGVSASFAMLGDLNIAEPKALIGFAGPRVIEQTVREKLPEGFQRSEFLLEKGAIDMIVKRSEMRQTLASVLSKLTNQPSPFVEPELISEDE", "soluble on expression in E. coli": "not soluble"}, {"sequence": "MSWQEKINAALDARRAADALRRRYPVAQGAGRWLVADDRQYLNFSSNDYLGLSHHPQIIRAWQQGAEQFGIGSGGSGHVSGYSVVHQALEEELAEWLGYSRALLFISGFAANQAVIAAMMAKEDRIAADRLSHASLLEAASLSPSQLRRFAHNDVTHLARLLASPCPGQQMVVTEGVFSMDGDSAPLAEIQQVTQQHNGWLMVDDAHGTGVIGEQGRGSCWLQKVKPELLVVTFGKGFGVSGAAVLCSSTVADYLLQFARHLIYSTSMPPAQAQALRASLAVIRSDEGDARREKLAALITRFRAGVQDLPFTLADSCSAIQPLIVGDNSRALQLAEKLRQQGCWVTAIRPPTVPAGTARLRLTLTAAHEMQDIDRLLEVLHGNG", "soluble on expression in E. coli": "soluble"}, {"sequence": "MSYLDFNSMLNNLYTKFGDSSFENVFYLPEPKISKKSTRIDWININVFLKSVNRSIEHFINYLKNDRKISTTYQNNILIIQGKYRKEDINKMMLEYVNKFCKCPICSSYDTLLVKDGTIRKEKIICSKCKSTTFCS", "soluble on expression in E. coli": "not soluble"}, {"sequence": "MSYPLFDKDEHWHKPEQAFLTDDHRTILRFAVEALMSGKGAVLVTLVEIRGGAARPLGAQMVVREDGRYCGFVSGGCVEAAAAFEALEMMGSGRDREIRYGEGSPWFDIVLPCGGGITLTLHKLRSAQPLLAVLNRLEQRKPVGLRYDPQAQSLVCLPTQTRTGWNLNGFEVGFRPCVRLMIYGRSLEAQATASLAAATGYDSHIFDLFPASASAQIDTDTAVILLCHDLNRELPVLQAAREAKPFYLGALGSYRTHTLRLQKLHELGWSREETTQIRAPVGIFPKARDAHTLALSVLAEVASVRLHQEEDSCLPPSS", "soluble on expression in E. coli": "not soluble"}, {"sequence": "MSYQIQYNDFPTFLRKHFPYKVQKISLNAGFTCPNRDGTKGWGGCTYCNNQTFNPDYCRTEKSIATQLEEGKCFFAHKYPEMKYLAYFQAYTNTYAELEGLKRKYEEALQVDGVVGLVIGTRPDCMPEELLQYLEELNRHTFLMVEYGIESASDETLRRINRGHTYADTVEAVQRTAACGILTGGHVILGLPGETHDTMVEQAGILSALPLSTLKIHQLQLIRGTRMAHEYEENPE", "soluble on expression in E. coli": "not soluble"}, {"sequence": "MSYSIVRVSKVKSGTNTTGIQKHVQRENNNYENEDIDHSKTYLNYDLVNANKQNFNNLIDEKIEQNYTGKRKIRTDAIKHIDGLITSDNDFFDNQTPEDTKQFFEYAKEFLEQEYGKDNLLYATVHMDEKTPHMHYGVVPITDDGRLSAKEVVGNKKALTAFQDRFNEHVKQRGYDLERGQSRQVTNAKHEQISQYKQKTEYHKQEYERESQKTDHIKQKNDKLMQEYQKSLNTLKKPINVPYEQETEKVGGLFSKEIQETGNVVISQKDFNEFQKQIKAAQDISEDYEYIKSGRALDDKDKEIREKDDLLNKAVERIENADDNFNQLYENAKPLKENIEIALKLLKILLKELERVLGRNTFAERVNKLTEDEPKLNGLAGNLDKKMNPELYSEQEQQQEQQKNQKRDRGMHLLEHHHHHH", "soluble on expression in E. coli": "soluble"}, {"sequence": "MTADRTGHCLCGGVQIAVATVSHEIGACHCEMCRRWTGSAFVTMMVPEAAMTVTGAEHVKAYASSAWAERCFCGSCGSTLWYRLTGPGMPRDYYMAAGLLDDLSGIRLAHEIYIDRKPDAWSFAGPTHQMTEAEFLATLPASPEE", "soluble on expression in E. coli": "not soluble"}, {"sequence": "MTAEPMSESKLNTLVQKLHDFLAHSSEESEETSSPPRLAMNQNTDKISGSGSNSDMMENSKEEGTSSSEKSKSSGSSRSKRKPSIVTKYVESDDEKPLDDETVNEDASNENSENDITMQSLPKEDGLHGIVSCTACGQQVNHFQKDSIYRHPSLQVLICKNCFKYYMSDDISRDSDGMDEQCRWCAEGGNLICCDFCHNAFCKKCILRNLGRKELSTIMDENNQWYCYICHPEPLLDLVTACNSVFENLEQLLQQNKKKIKVDSEKSNKVYEHTSRFSPKKTSSNCNGEEKKLDDSCSGSVTYSYSALIVPKEMIKKAKKLIETTANMNSSYVKFLKQATDNSEISSATKLRQLKAFKSVLADIKKAHLALEEDLNSEFRAMDAVNKEKNTKEHKVIDAKFETKARKGEKPCALEKKDISKSEAKLSRKQVDSEHMHQNVPTEEQRTNKSTGGEHKKSDRKEEPQYEPANTSEDLDMDIVSVPSSVPEDIFENLETAMEVQSSVDHQGDGSSGTEQEVESSSVKLNISSKDNRGGIKSKTTAKVTKELYVKLTPVSLSNSPIKGADCQEVPQDKDGYKSCGLNPKLEKCGLGQENSDNEHLVENEVSLLLEESDLRRSPRVKTTPLRRPTETNPVTSNSDEECNETVKEKQKLSVPVRKKDKRNSSDSAIDNPKPNKLPKSKQSETVDQNSDSDEMLAILKEVSRMSHSSSSDTDINEIHTNHKTLYDLKTQAGKDDKGKRKRKSSTSGSDFDTKKGKSAKSSIISKKKRQTQSESSNYDSELEKEIKSMSKIGAARTTKKRIPNTKDFDSSEDEKHSKKGMDNQGHKNLKTSQEGSSDDAERKQERETFSSAEGTVDKDTTIMELRDRLPKKQQASASTDGVDKLSGKEESFTSLEVRKVAETKEKSKHLKTKTCKKVQDGLSDIAEKFLKKDQSDETSEDDKKQSKKGTEEKKKPSDFKKKVIKMEQQYESSSDGTEKLPEREEICHFPKGIKQIKNGTTDGEKKKKK", "soluble on expression in E. coli": "soluble"}, {"sequence": "MTALAVAPASAACAIAAEAIHCAAMDTASAADEALMLAYGAEGDMDAFDALYARHRAGLYRYILRSARNAAQADDIFQETWSRVIDARARYRPQARFTTWLLQIAHNLLVDAHRRQPAPVAPEQAEAALASVPAAEHEQPEARLSEFQQRRRLQLAIERLPDEQRLAMLLRLEHDLDVEEIAQVTGVSRETVKSRLRYATRRIREELSSESAPRSP", "soluble on expression in E. coli": "not soluble"}, {"sequence": "MTALTEGAKLFEKEIPYITELEGDVEGMKFIIKGEGTGDATTGTIKAKYICTTGDLPVPWATILSSLSYGVFCFAKYPRHIADFFKSTQPDGYSQDRIISFDNDGQYDVKAKVTYENGTLYNRVTVKGTGFKSNGNILGMRVLYHSPPHAVYILPDRKNGGMKIEYNKAFDVMGGGHQMARHAQFNKPLGAWEEDYPLYHHLTVWTSFGKDPDDDETDHLTIVEVIKAVDLETYR", "soluble on expression in E. coli": "soluble"}, {"sequence": "MTAMPRIAFLASPAEPAVAARARLVQRYGDHALHDADIVCALGGDGFMLQTLHRHGAADKPVFGMKLGSVGFLMNQYRDDEDDLLARLQRAEPAHLRPLEMLVQTESGTSAGSLAYNEVSLLRQTRQAAHLSVDLNGQTRIAELIGDGVMVATPAGSTAYNYSAHGPILPLGSHTLALTPIAPYRPRRWRGAILKADTEVRFRVLDPYKRPVSVTADSHEIRDVVEVTIRESTERRVTLLFDPEHNLEERIFSEQFAVLEHHHHHH", "soluble on expression in E. coli": "not soluble"}, {"sequence": "MTAPFNALLIANRGEIAIRIARACADLGIRSVAVFAEDDAASLHVRKADVALPLAGRGVAAYLDMDRLVALALEQGCEAIHPGYGFLAENGEFARRCQRAGIHFVGPQAEVLDLFGDKAAARALAERLEVPLVAGINRAVSVEEAEAFLEGLGDGAAVMLKALAGGGGRGMRAVEEVAQLADAYRRCRAEAQAAFGRDELYVEQRVARARHIEVQVLGDGSGAVSHLWERDCSLQRRQQKLLEIAPSPDLPEATREALIDCALRMAGAVRYRGIGTFEFLVDDERPGRFYFMEANPRIQVEHTVTEEVTGVDLLHAQLRLAAGMELAALGLERPPAIGGCAVQLRINLETLAADGSARPAVGTIGAYEPPSGPGLRVDGYGYAGYRVSPSYDSLLAKLVVRGADYPAALRRAYRALCEFRLEGVASNLDLLRNLLLHPAVQANRVDTRFVESHLETLLAPIPASHPRLRAECPLAEDAAPARVEAPLGSLPLSAPSSGVLVALEVADGERVRAGQRVAILEAMKMEFEVKAPGGGIVRRLAASLGEPLEEGATLLFLEPTEDDDEQAPTEQALDLAHIRADLAEVLERQAALGDERRPQALARRRKTGQRTARENVLDLLDEGSFSEYGGFALAAQRRRRSAEELLELSPADGLVAGTGTVGAASFGVQAARCLVLAYDYTVFAGTQGVMNHKKTDRLLGLAEQWRLPLVLFAEGGGGRPGDTDFVGVAGLDCHTFVGMARLSGLVPLVGVVSGRCFAGNAALLGCCDVIIATRDATIGMAGPAMIEGGGLGRFAAEEVGPTGVQGPNGVIDVLVEDEAEAVAVARRYLGYFQGPLPDWSCADQRELRHLVPENRLRAYDIRQAIEVLADRGSVLELRRQFAPGLVTALLRIEGRAFGLIANNPGHLGGAIDAAAGDKAARFMQLCDAFDIPIVSLCDTPGFMVGPEAEKQATVRHVSRMFVSAASLTVPFFTVVLRKGYGLGAQAMAAGSFHSPLFTVAWPSGEFGAMGLEGAVRLGFAKELAAEEDPQRREALFRGMVDKAYRNGKALNMASYLEIDAVIDPAETRAWLLRGLAVAGEPAPRAGRKRPF", "soluble on expression in E. coli": "not soluble"}, {"sequence": "MTAPTLAPIDPPARAQLLADLQGAPDWDVIVIGGGATGLGTAVDAAARGYRTLLVEAADFAKGTSSKATKLVHGGVRYLAQGNISLVREALHERGLLNRNAPHLVWPLGFVVPAYSLLDQPFYGVGLKMYDMLAGKLNLAPSRWLSRGETLRHAATVAERVNGRALRGGILYYDGQFDDARLAIALMRTLYDLGGVALNYARAVGLTRTDGRVDGVTVADALGELRVTLRAKCVVNATGVWVDAVRRMDDPAAQTMVAPSQGVHLTLPRDFLPGEDAILIPKTDDGRVLFVVPWNGHTIVGTTDTPRTDLPLDPQAGQNEIDFILATAARYLSRKPTRADVTSVWAGLRPLVKATGEASTKSLSREHTIVVSKGGLVTVTGGKWTTYRKMAQDVVDTAIQHKLLAAAPCRTSELPLHGAPTDGQPSGAPHGTPDSYYGTDLATLRALPGADRMLVKASALTEAHVRYAARHELARTVEDVLARRNRALFLDAEAALLAAPEVARILAQELGHDEAWSRATLAEFEAVAAHYRLALEHHHHHH", "soluble on expression in E. coli": "soluble"}, {"sequence": "MTAPTLAPIDPPARAQLLTDLQGAPDWDVIVIGGGATGLGTAVDAAARGYRTLLVEAADFAKGTSSKATKLVHGGVRYLAQGNISLVREALHERGLLNRNAPHLVWPLGFVVPAYSLLDQPFYGVGLKMYDMLAGKLNLAPSRWLSRGETLRHAATVAERVNGRALRGGILYYDGQFDDARLAIALMRTLYDLGGVALNYARAVGLTRTDGRVDGVTVADALGELRVTLRAKCVVNATGVWVDAVRRMDDPAAQTMVAPSQGVHLTLPRDFLPGEDAILIPKTDDGRVLFVVPWNGHTIVGTTDTPRTDLPLDPQAGQNEIDFILATAARYLSRKPTRADVTSVWAGLRPLVKATGEASTKSLSREHTIVVSKGGLVTVTGGKWTTYRKMAQDVVDTAIEHKLLAAAPCRTSELPLHGAPADGQPNGAPHGTPDSYYGTDLATLRALPGADRMLVKASALTEAHVRYAARHELARTVEDVLARRNRALFLDAEAALLAAPEVARILAQELGHDEAWSRATLAEFEAVAAHYRLALEHHHHHH", "soluble on expression in E. coli": "not soluble"}, {"sequence": "MTAQTPRPYPSPYGRGNWYADTVTDVPASPPLDGDVAAEVCIIGAGFTGLGAALALGSRAVVLEAGRIGCAASGRNGGQVHTGQRRDQAWLEKTVGRDDALALWRLAEEARAHFASLVTAIDCDWRPGMIHARHKPGGEAEDADYLALMADRYGYDQLELIGETALAHELGTDVYHGGLADHGGGHVHPLKLAQGMAAQARAAGAVIHENTRADAWRREGGKIVVETGGGRVTCDQLILSGDGLLNRMAGPAQARVMPINNFIAVTAPLGALADEIIRSNAAVSDSRFVVNYFRKTPDGRLLFGGGENYRPGFPHDIAGLVRKNLAKIYPRLADVEITHAWGGTLGITFSRMPFVGEVAQGVRVAAGYSGQGVMLAPYVGKLLAEAALGETGPVDLLSRLPTPPFPGGRLLRWPLTVAGLSWYALRDRLLEHHHHHH", "soluble on expression in E. coli": "not soluble"}]}]}
